B1: KCASH2 (KCTD21), full length, recombinant (natural protein)
chain: MSDPITLNVGGKLYTTSLATLTSFPDSMLGAMFSGKMPTKRDSQGNCFIDRDGKVFRYILNFLRTSHLDLPEDFQEMGLLRREADFYQVQPLIEALQEKEVELSKAEKNAMLNITLNQRVQTVHFTVREAPQIYSLSSSSMEVFNANIFSTSCLFLKLLGSKLFYCSNGNLSSITSHLQDPNHLTLDWVANVEGLPEEEYTKQNLKRLWVVPANKQINSFQVFVEEVLKIALSDGFCIDSSHPHALDFMNNKIIRLIRYR
B2: BTB/POZ domain of KCASH1 (KCTD11) (BTB/POZ11) (domain or fragment)
chain: GPVTLNVGGTLYSTTLETLTRFPDSMLGAMFRAGTPMPPNLNSQGGGHYFIDRDGKAFRHILNFLRLGRLDLPRGYGETALLRAEADFYQIRPLLDALRELEASQG

Experiments:
Experiment in all cases: MST
[1] = target: BTB/POZ domain of KCTD15 (BTB/POZ15) (UniProt Q96SI1)
BTB/POZ domain of KCTD15 (BTB/POZ15), sequence (Q96SI1 whole entry, the tested form may be a part): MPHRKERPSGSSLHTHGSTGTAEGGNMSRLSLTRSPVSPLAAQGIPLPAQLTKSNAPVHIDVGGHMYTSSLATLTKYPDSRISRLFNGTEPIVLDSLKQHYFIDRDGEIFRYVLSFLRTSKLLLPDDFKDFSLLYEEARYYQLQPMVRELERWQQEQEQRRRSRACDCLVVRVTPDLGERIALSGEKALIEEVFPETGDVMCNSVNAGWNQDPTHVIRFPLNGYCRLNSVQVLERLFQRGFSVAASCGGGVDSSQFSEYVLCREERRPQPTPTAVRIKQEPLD

[2] = target: C-terminal BTB/POZ containing fragment of KCTD1 (BTB/POZ1) (UniProt Q719H9)
[3] = target: T1, C-terminal BTB/POZ containing fragment of KCTD1 (BTB/POZ1) (UniProt Q719H9 1-257)
T1 sequence: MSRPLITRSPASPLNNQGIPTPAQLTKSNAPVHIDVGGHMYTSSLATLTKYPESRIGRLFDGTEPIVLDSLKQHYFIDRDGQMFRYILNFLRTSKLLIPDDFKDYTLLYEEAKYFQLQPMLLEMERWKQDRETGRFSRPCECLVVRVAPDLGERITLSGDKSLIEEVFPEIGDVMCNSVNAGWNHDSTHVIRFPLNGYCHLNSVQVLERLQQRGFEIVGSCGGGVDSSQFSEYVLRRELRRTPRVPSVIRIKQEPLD

Binder	Kd [1] [µM]	Kd [2] [µM]	Kd [3] [µM]
B1	6.6	3.9	
B2			0.8 ± 0.1

Reference: paper PMC10462845 (Neoplasia (New York, N.Y.), 2023)
